According to article PMC7496822 (Arthritis & Rheumatology (Hoboken, N.j.), 2020):

Columns and labels:
Assay in all cases: ELISA
[1] = biological target: insulin from bovine pancreas (Bos taurus, UniProt P01317)
SSA/Ro52 = SSA/Ro52 (Homo sapiens (assumed), UniProt P19474)
SSA/Ro60 = SSA/Ro60 (Homo sapiens (assumed), UniProt P10155)
actin from bovine muscle = actin from bovine muscle (Bos taurus, UniProt P68138)

Measured: binding result

Chain of insulin from bovine pancreas (P01317 whole entry, looked up): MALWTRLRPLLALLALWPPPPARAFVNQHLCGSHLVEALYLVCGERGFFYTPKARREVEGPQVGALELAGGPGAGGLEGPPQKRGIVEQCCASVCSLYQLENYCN
Chain of SSA/Ro60 (P10155 whole entry): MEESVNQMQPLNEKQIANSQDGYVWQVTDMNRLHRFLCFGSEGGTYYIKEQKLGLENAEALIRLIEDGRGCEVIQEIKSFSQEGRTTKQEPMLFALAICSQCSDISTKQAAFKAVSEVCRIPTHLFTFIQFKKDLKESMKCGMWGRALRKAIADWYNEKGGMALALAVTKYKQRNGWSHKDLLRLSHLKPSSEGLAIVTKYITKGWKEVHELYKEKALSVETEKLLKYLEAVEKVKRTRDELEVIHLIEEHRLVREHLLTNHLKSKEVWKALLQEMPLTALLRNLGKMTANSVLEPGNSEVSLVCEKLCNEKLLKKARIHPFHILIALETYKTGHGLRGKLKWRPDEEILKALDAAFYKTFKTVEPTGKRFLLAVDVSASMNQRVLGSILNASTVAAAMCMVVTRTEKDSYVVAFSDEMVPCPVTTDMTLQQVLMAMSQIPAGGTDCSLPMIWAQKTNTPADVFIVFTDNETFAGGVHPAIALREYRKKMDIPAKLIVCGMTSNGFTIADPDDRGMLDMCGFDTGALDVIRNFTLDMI
Chain of SSA/Ro52 (P19474 whole entry): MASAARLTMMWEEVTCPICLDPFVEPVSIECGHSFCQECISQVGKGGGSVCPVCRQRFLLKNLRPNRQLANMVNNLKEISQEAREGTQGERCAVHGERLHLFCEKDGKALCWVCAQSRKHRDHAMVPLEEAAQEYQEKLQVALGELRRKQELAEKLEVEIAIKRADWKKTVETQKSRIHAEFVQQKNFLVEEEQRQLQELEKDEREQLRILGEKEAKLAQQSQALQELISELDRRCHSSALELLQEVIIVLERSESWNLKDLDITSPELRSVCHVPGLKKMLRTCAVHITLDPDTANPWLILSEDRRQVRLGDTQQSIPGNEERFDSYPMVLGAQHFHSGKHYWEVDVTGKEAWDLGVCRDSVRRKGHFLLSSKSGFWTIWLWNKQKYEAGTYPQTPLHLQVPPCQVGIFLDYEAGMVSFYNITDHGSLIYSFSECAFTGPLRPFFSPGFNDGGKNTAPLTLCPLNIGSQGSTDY

B1: recombinant IgM of MALT lymphoma salivary gland sample M11 (antibody, V domains shown)
VH: QVQLVQSGAEVKKPGSSVKVSCRASGGTFSRYAISWVRQAPGQGLEWMGGIIPLFNTPNYAQKFQGRVTIIADESTSTAYMELSSLRSDDTAVYYCAREGIAAAVNPFDYWGQGTLVTVSS
VL: not shown
no binding (tested: up to 1 μg/ml IgM): all assays above

B2: recombinant IgM of MALT lymphoma salivary gland sample M22 (antibody, V domains shown)
VH: QVQLVQSGAEVKKSGSSVKVSCKASGGTFNNYAINWVRQAPGQGLEWMGGIIPIFGTPNYAQKFQGRVAITADKSTGTAYMELSSLRSEDTAVYYCARGSNDYGDNVPVQPYHYWGQGTLVTVSS
VL: EIVLTQSPGTLSLSPGERATLSCRASQSISSTYLAWYQQKPGQAPRLLIYGASSRATGIPDRFSGSGSGTDFTLTISRLEPEDFAMYYCQQFGSSPQTFGQGTKLEIK
no binding (tested: up to 1 μg/ml IgM): all assays above

B3: recombinant IgM of MALT lymphoma salivary gland sample M5 (antibody, V domains shown)
VH: EVQLVESGGGLVQPGGSLRLSCAASGFTFSSYWMSWVRQAPGKGLEWVANIKEDGGGKYYVDSVKGRFTISRDNAKNSLYLQMNSLRVEDTAVYYCARGDFWSGDYIDAFDIWGQGTLVTVSS
VL: EIVMTQSPATLSVSPGERATLSCRASQSVSSNLAWYQQKPGQPPRLLIYGASTRATGIPARFSGGGSGTEFTLTISSLQSEDFALYYCQHYNNWPPWTFGQGTKVEIK
no binding (tested: up to 1 μg/ml IgM): all assays above
